According to the nanobody polyreactivity screen of Harvey et al. (2022):

Assay: yeast display, Sf9 membrane polyspecificity reagent, FACS + sequencing; frameworks hold sequencing errors
Method in brief: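 Genes from sorted yeast were amplified by colony PCR, read by MiSeq 2 × 250 sequencing and filtered on CDR length. These cells carried a synthetic nanobody library in Saccharomyces cerevisiae BJ5465 and were sorted by FACS into low and high (top ~1%) gates on anti-HA and streptavidin fluorescence. Polyreactivity is labelled according to the gate of origin.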

QVQLVESGGGLVQAGGSLRLSCAASGFIFAGYALGWYRQAPGKERELVAAISSGGGSTYYADSVKGRFTISRDNAKNTGYLQMNSLKPEDTAVYYCAARRLYPPGYYYWGQGTQVTVSS
polyreactivity (PSR sort gate): high polyreactivity

QVQLVESGGGLVQAGGSLRLSCAASGSTFEEYAMGWYRKAPGKERELVAGITWGGGSTYYADSVKGRFTISRDNAKNTVYLQMNSLKPEDTAVYYCVFAFEYYYWGQGTQVTVSS
polyreactivity (PSR sort gate): low polyreactivity

QLQLVESGGGLVQAGGSLRLSCAASGLILYSYAMGRYRQAPGKERELVADISSGGITNYADSVKGRFTISRDNAKNTVYLQMNSLKPADTAVNYCAADTRPVNYILYEYWGQGTQVTVSS
polyreactivity (PSR sort gate): low polyreactivity

QVQLVESGGGLVQAGGSLRLSSAASGLIFTRYAMGWYRQATGKERELVAAISYSGTSTYYADSVKGRFTISRDNAKNTVYLQMNSLKPEDTAVYYCAARSSYPLKGYYWGQGTQVTVSS
polyreactivity (PSR sort gate): high polyreactivity

QVQHVESGGGLVQAGGSLRLSCAASGRTFGRNAMGWYRQAPGKESEFVASINQRGGCTYYADSVKGRFTISRDIAKNTVYLQMNSLKPEDTAVYYCAKYVYVGYVRQVPYFRYDYWGQGTQVTVSS
polyreactivity (PSR sort gate): high polyreactivity

QVQLVESGGGLVQAGGSLRLSCAASGSIFTYYTMGWYRPAPGKERELVAAIRWSAGRTYYADSVKGRFTISRDNAKNTVYLQMNSLKPEDTAVYYCAAAERLRHGLKFDYWGQGTQVTVSS
polyreactivity (PSR sort gate): high polyreactivity

QVQRVESGGGLVQAGGSVRLSCPASGSIFWSYAMGWYRQAPGKERELVAVINWSGGSTYYADSVKGRFTISRDNAKNTVYLQMNSLNPEDTAVYYCNKDLGPTKRPFTFDYSGQGTQVTVSS
polyreactivity (PSR sort gate): low polyreactivity

QVQMQEIGGGLVQASGSLRLSCAASGNIFPDYFMGWYRLAPGKEREFVANITGGSTTNYADSVKGRFTISRDNAKNTVYLQINSLKPEDTAVYYCAVNFGTEQHAYWGQGTQVTVSS
polyreactivity (PSR sort gate): high polyreactivity

QVQLVESGGGLVQAGGSLRLSCAASGSISRLYAMRWYRQAPGKERELVARITSSGGRTYYADSVKGRFTISRDNAKNTVYLQMHSLKPEDTAVYYCAARGYVSVWRPYHWFVAGDYWGQGTQVTVSS
polyreactivity (PSR sort gate): high polyreactivity

QVQLEDSGGGLVQAGGSLRLSCAASGSTFDNYAMGWYRQAPGKERELVAVITQSGGITFYADSVKGRFTISRDNAKNTVYLQMNSVKPEDTAVYYCNVELDRSWYYYWGQGTQVTVSS
polyreactivity (PSR sort gate): low polyreactivity

QVQLVESGGGLVQAGGSLRRTCAASGSIFVGYAMGWYRQEPGKERELVASITNGDSTNYADSVKGRFTISRDNAKNTVSYQMNSLKPEDTAVYYCAADYYSVHPSGWYGYEYWGQGTQVTVSS
polyreactivity (PSR sort gate): low polyreactivity

QVQLVESGGGLVQAGGSLRLSCAASGRIFRWYAMGWYRQAPGKERELVATITRSGGSTYCADSVKGRFTISRDNAKNTVYLQMNSLKPEDTAVYYCAARWRLTPSWLPYVQSSAGYDYWGQGTQVTVSS
polyreactivity (PSR sort gate): high polyreactivity

QVQLVESGGGLVQAGGSLRLSCAASGSIFGDYVMGWYRQAPGNERELVAAINRGGSTYYADSVKGRFSISRDNAKNTVYLQMNSLTAEDTAVYFCAAGYPSWYYCYPYDSWGQGTQVTVSS
polyreactivity (PSR sort gate): low polyreactivity

QVQLVESGGGLVQAGGSLRLSCAASGLIFNRNDMGRYRQAPGKETELVAAISGDGGITYYADSVKGRFTISRDNAKNTVYLQMNSLKPEDTAVYYCNAGFTWGDWYDYWGQGTQVTVSS
polyreactivity (PSR sort gate): low polyreactivity

QVQLVESGGGLVQAGGSLRLSCAASGITFFAYTMGWYRQAHGKERELVASISSSGGSTNYADSVKGRFTISRDNAKNTVYLQMNSLKPEDTAVYYCAARQSLYRGGRWYDYWGQGTQVTVSS
polyreactivity (PSR sort gate): high polyreactivity

QVQLVESGGGLVQAGGSLRLSCAASGRIFPYYAMGWYRQAPGKERELVAAITRGGSRTYYADSVKGRFTISRDNAKNTVYLQMNSLKPEDTAVSYCARLDGFSASDHDYGGQGTQVTVSS
polyreactivity (PSR sort gate): high polyreactivity

QVQLVESGGGLVHAGGSLRLSCSASRFIFDKNSMGWYIQAPGKERELVAAISYGDGRTYYADSVKGRFTISRDNAKNTVYLHMNSLKPEDTEVYYCNTDAKRYIRIYWGQGTQVTVSS
polyreactivity (PSR sort gate): high polyreactivity

QVQLVESGGGLVQEGGSLRLSCAASGRIFDENAMGWYRQAPGKERELVAAISSGDSTKYADSVKGRFTISRDNAKNTVYLQMNSLKPEDTAVYYCAAARNHGLVGSESVGRNDYWGQGTQVTVSS
polyreactivity (PSR sort gate): low polyreactivity

QVQLVESGGGLVQAGGSLRLSCAASGIIFGKYAMGWYRQAPGKERELVAAINYSGSTYYADSVKGRFTISRDNAKNTVYLQMNSLKPEDTAVYYCAAVLGLDTRYDYWGQGTQVTVSS
polyreactivity (PSR sort gate): high polyreactivity

QVQLVESGGGLVQAGGSLRLSCAASGSILYTYAMGWYRQSPGKERELVAAISRGGGSTYYADSVKGRFTISRDNAKNSVYLQMNSLKPEDSAVYYCAARKLTRGSGRDDEYWGQGTQVTVSS
polyreactivity (PSR sort gate): high polyreactivity

QVQLVESGGGLVQAGGSLRLSCAASGSTFFVANAMGWYRQSPGKERELVAAISPSGGSTYYADSVKGRFTISRDNAKNTVYLQMNSLKPEDTAVYYCATSVRRFTRRYDYWGQGTQVTVSS
polyreactivity (PSR sort gate): high polyreactivity

QVQLVESGGGLVQAGGSLRLICAASGFTFDENAMGWYRQAPGINYSGASTYYADSVKGRFTISRDNAKNTVYLQMISLKPEDTAVYYCAADYETGAVSILDDYWGQGTQVTVSS
polyreactivity (PSR sort gate): low polyreactivity
